Tests used:
[1] = molecular target: human rhinovirus strain RV89 (purified virus) (human rhinovirus 89 (RV-A, major group)); assay: ELISA; fluid phase competition: RV89 (25 µg/mL) or RV2 (2 µg/mL in the methods, 5 µg/mL in the results) pre-incubated with soluble receptor (50 µg/mL) overnight at 4 °C, then added to plate-bound receptor
[2] = molecular target: human rhinovirus strain RV2 (purified virus) (human rhinovirus 2 (RV-A, minor group)); assay: as above

Row | Substance | percent inhibition of RV89 binding to plate-bound ICAM-1 (50 µg/mL ICAM-1, 25 µg/mL RV89) [1] | percent inhibition of RV2 binding to plate-bound LDLR (50 µg/mL LDLR) [2]
1 | recombinant human ICAM-1/CD54 (intercellular adhesion molecule 1) (from UniProt P05362 28-480) (receptor) | > 95% | 
2 | recombinant human low density lipoprotein receptor (LDLR) (from UniProt P01130 22-788) |  | > 60%
